Experimental findings from paper PMC4233142 are described below.

In the assay the target is YFPC-2aCore (hepatitis C virus genotype 2a (JFH-1)) (UniProt Q99IB8). Nature of the assay: split reporter.

Turning to “YFPN-2a5B (from UniProt Q99IB8 2443-3033) (natural protein)”, the percent of RFP-expressing cells that also expressed YFP was 43%.
